Assay results taken from patent US6689567 (UNIVERSITY OF GUELPH, dated 2004).

Target: the molecule itself
Assay: gel filtration on G100 Sephadex; self-association (homodimer)

B1: FlaA1 from Helicobacter pylori carrying a N-terminal hexahistidine tag (enzyme)
chain: MHHHHHHGSMSMPNHQNMLDNQTILITGGTGSFGKCFVRKVLDTTNAKKIIVYSRDELKQSEMAMEFNDPRMRFFIGDVRDLERLNYALEGVDICIHAAALKHVPIAEYNPLECIKTNIMGASNVINACLKNAISQVIALSTDKAANPINLYGATKLCSDKLFVSANNFKGSSQTQFSVVRYGNVVGSRGSVVPFFKKLVQNKASEIPITDIRMTRFWITLDEGVSFVLKSLKRMHGGEIFVPKIPSMKMTDLAKALAPNTPTKIIGIRPGEKLHEVMIPKDESHLALEFEDFFIIQPTISFQTPKDYTLTKLHEKGQKVAPDFEYSSHNNNQWLEPDDLLKLL
notes: Full-length FlaA1 with an N-terminal hexahistidine tag, overexpressed in E. coli (pET system) and purified; also called HP0840; His-FlaA1
B1: binds.
